Measurements as given in patent US20210033615A1 (DEUTSCHES KREBSFORSCHUNGSZENTRUM STIFTUNG DOES OFFENTLICHEN …, published 2021).

Experiments:
[1] = target: T1, PFKFB4 tagged at the C-terminal with the Large BiT (human, UniProt Q16877 1-469); experiment: NanoBiT luminescence complementation in HEK293 cells; counted positive if the signal is at least 10-fold that of the negative control
T1 construct: Expressed in HEK293 cells for the NanoBiT assay; also called C-ter[LgBiT]PFKFB4; tagged PFKFB4; not shown: Large BiT (LgBiT) tag and any linker from the pLVX1.1-C[TK/LgBiT]; NanoBiT vector
Text: The NanoBiT® assay from Promega is widely used to investigate protein-protein interactions. The NanoBiT Assay is described in detail in Dixon et al., (2016) “NanoLuc Complementation Reporter Optimized for Accurate Measurement of Protein Interactions in Cells” (ACS Chem. Biol., 11, 400-408; which is incorporated herein by reference in its entirety). The inventors adapted this method to develop a cellular screening assay in order to investigate the interaction of PFKFB4 with FBXO28. In that respect, both genes were cloned into pLVX vectors containing the four NanoBiT® versions (pLVX1.1-N[TK/LgBiT], pLVX2.1-N[TK/SmBiT], pLVX1.1-C[TK/LgBiT] and pLVX2.1-C[TK/SmBiT]), allowing the small and large BiT tags to be at the N- or C-terminal of both proteins of interest. As negative control, a vector containing a HaloTag protein cloned to the small BiT was used in combination with the large BiT cloned to either FBXO28 or PFKFB4.
All vectors were transfected in HEK293 cells and the combinations were tested as depicted in FIG. 7A. The luminescent signal was detected with the Nano-Glo® Luciferase Assay System from Promega. The interaction was considered positive if the signal was at least 10-fold of the respective negative control. […]

[2] = target: T2, 6-phosphofructo-2-kinase/fructose-2,6-biphosphatase 4 (PFKFB4) (human, UniProt Q16877 1-469); experiment: NanoBiT competition in HEK293 cells
T2 construct: It was expressed inside cells (GSCs, HEK293) or in yeast two-hybrid; any tags in the coIP and Y2H are not described; also called untagged PFKFB4
T2 sequence (Q16877 whole entry): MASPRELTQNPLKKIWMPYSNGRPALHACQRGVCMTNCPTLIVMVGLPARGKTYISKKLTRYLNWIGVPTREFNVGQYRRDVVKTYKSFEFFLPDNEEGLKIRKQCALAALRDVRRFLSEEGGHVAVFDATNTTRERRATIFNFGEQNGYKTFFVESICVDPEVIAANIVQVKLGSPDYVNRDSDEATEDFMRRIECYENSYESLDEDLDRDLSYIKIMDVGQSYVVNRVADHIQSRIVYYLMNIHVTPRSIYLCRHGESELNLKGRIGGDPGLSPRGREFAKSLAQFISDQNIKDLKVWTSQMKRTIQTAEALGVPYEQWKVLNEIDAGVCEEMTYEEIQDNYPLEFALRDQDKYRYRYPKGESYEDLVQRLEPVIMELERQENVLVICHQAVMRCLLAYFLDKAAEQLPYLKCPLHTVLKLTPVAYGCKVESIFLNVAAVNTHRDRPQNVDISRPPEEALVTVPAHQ

T1 sequence (Q16877 whole entry): as above

binding result [1]: binds
binding result [2]: binds
B1: FBXO28 tagged at the N-terminal with the small BiT (other)
chain: MAAAAEERMAEEGGGGQGDGGSSLASGSTQRQPPPPAPQHPQPGSQALPAPALAPDQLPQNNTLVALPIVAIENILSFMSYDEISQLRLVCKRMDLVCQRMLNQGFLKVERYHNLCQKQVKAQLPRRESERRNHSLARHADILAAVETRLSLLNMTFMKYVDSNLCCFIPGKVIDEIYRVLRYVNSTRAPQRAHEVLQELRDISSMAMEYFDEKIVPILKRKLPGSDVSGRLMGSPPVPGPSAALTTMQLFSKQNPSRQEVTKLQQQVKTNGAGVTVLRREISELRTKVQEQQKQLQDQDQKLLEQTQIIGEQNARLAELERKLREVMESAVGNSSGSGQNEESPRKRKKATEAIDSLRKSKRLRNRK
notes: Expressed in HEK293 cells for the NanoBiT assay; also called N-ter[SmBiT]FBXO28; tagged FBXO28; not shown: Small BiT (SmBiT) tag and any linker from the pLVX2.1-N[TK/SmBiT]; NanoBiT vector
